Test results taken from PMC10328077 (2023).

B1: recombinant N-terminal fragment apoE2(1–165) (domain or fragment)
chain: KVEQAVETEPEPELRQQTEWQSGQRWELALGRFWDYLRWVQTLSEQVQEELLSSQVTQELRALMDETMKELKAYKSELEEQLTPVAEETRARLSKELQAAQARLGADMEDVCGRLVQYRGEVQAMLGQSTEELRVRLASHLRKLRKRLLRDADDLQKCLAVYQAG
modifications: NT647 dye (Monolith RED-NHS labelling kit) in the MST; unlabelled in the ELISA and the cross-linking
B2: FH402Y, isolated from plasma of FH402Y homozygous healthy donors (natural protein)
chain: EDCNELPPRRNTEILTGSWSDQTYPEGTQAIYKCRPGYRSLGNVIMVCRKGEWVALNPLRKCQKRPCGHPGDTPFGTFTLTGGNVFEYGVKAVYTCNEGYQLLGEINYRECDTDGWTNDIPICEVVKCLPVTAPENGKIVSSAMEPDREYHFGQAVRFVCNSGYKIEGDEEMHCSDDGFWSKEKPKCVEISCKSPDVINGSPISQKIIYKENERFQYKCNMGYEYSERGDAVCTESGWRPLPSCEEKSCDNPYIPNGDYSPLRIKHRTGDEITYQCRNGFYPATRGNTAKCTSTGWIPAPRCTLKPCDYPDIKHGGLYHENMRRPYFPVAVGKYYSYYCDEHFETPSGSYWDHIHCTQDGWSPAVPCLRKCYFPYLENGYNQNYGRKFVQGKSIDVACHPGYALPKAQTTVTCMENGWSPTPRCIRVKTCSKSSIDIENGFISESQYTYALKEKAKYQCKLGYVTADGETSGSITCGKDGWSAQPTCIKSCDIPVFMNARTKNDFTWFKLNDTLDYECHDGYESNTGSTTGSIVCGYNGWSDLPICYERECELPKIDVHLVPDRKKDQYKVGEVLKFSCKPGFTIVGPNSVQCYHFGLSPDLPICKEQVQSCGPPPELLNGNVKEKTKEEYGHSEVVEYYCNPRFLMKGPNKIQCVDGEWTTLPVCIVEESTCGDIPELEHGWAQLSSPPYYYGDSVEFNCSESFTMIGHRSITCIHGVWTQLPQCVAIDKLKKCKSSNLIILEEHLKNKKEFDHNSNIRYRCRGKEGWIHTVCINGRWDPEVNCSMAQIQLCPPPPQIPNSHNMTTTLNYRDGEKVSVLCQENYLIQEGEEITCKDGRWQSIPLCVEKIPCSQPPQIEHGTINSSRSSQESYAHGTKLSYTCEGGFRISEENETTCYMGKWSSPPQCEGLPCKSPPEISHGVVAHMSDSYQYGEEVTYKCFEGFGIDGPAIAKCLGEKWSHPPSCIKTDCLSLPSFENAIPMGEKKDVYKAGEQVTYTCATYYKMDGASNVTCINSRWTGRPTCRDTSCVNPPTVQNAYIVSRQMSKYPSGERVRYQCRSPYEMFGDEEVMCLNGNWTEPPQCKDSTGKCGPPPPIDNGDITSFPLSVYAPASSVEYQCQNLYQLEGNKRITCRNGQWSEPPKCLHPCVISREIMENYNIALRWTAKQKLYSRTGESVEFVCKRGYRLSSRSHTLRTTCWDGKLEYPTCAKR

Columns and labels:
[1] = target: FH402H, isolated from plasma of FH402H homozygous healthy donors (human, UniProt P08603 19-1231, Y402H); assay: MST
[2] = target: B1; assay: MST

| Kd [1] [nM] | Kd [2] [nM] | Binder |
| --- | --- | --- |
| 400 |  | B1 |
|  | 200 | B2 |
